The results in this text go back to article PMC8583203, “DisA Restrains the Processing and Cleavage of Reversed Replication Forks by the RuvAB-RecU Resolvasome”.

By Kd is commonly meant a measure of binding affinity in units of concentration.

Data set [1] addresses T1, DisA (Bacillus subtilis, UniProt P37573 1-360).
T1 sequence: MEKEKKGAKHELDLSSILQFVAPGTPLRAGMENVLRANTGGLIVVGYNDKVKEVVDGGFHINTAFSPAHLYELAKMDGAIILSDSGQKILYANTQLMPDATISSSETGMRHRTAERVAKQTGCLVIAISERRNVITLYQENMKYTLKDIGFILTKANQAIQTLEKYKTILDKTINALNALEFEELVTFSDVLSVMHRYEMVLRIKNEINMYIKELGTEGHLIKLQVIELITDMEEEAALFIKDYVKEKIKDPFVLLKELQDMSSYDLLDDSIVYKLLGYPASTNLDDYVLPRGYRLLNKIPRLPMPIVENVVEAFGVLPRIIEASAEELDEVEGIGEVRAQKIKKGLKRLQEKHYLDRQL
The data set can be described thus: EMSA. The settings on record: 10 mM Mg2+; 0.2% glutaraldehyde; 50 mM Tris-HCl pH 7.5, 50 mM NaCl, 1 mM DTT, 0.05 mg/mL BSA, 5% glycerol, 1 or 10 mM MgCl2 or 5 mM EDTA, 15 min 37 C, 0.2 nM DNA; 0.2% glutaraldehyde before 6% …. (In general: A gel shift assay detects complexes by their altered migration in electrophoresis.)

In data set [2] the target is T1, DisA. The data set can be described thus: EMSA; 10 mM Mg2+; 0.2% glutaraldehyde; 50 mM Tris-HCl pH 7.5, 50 mM NaCl, 1 mM DTT, 0.05 mg/mL BSA, 5% glycerol, 1 or 10 mM MgCl2 or 5 mM EDTA, 15 min 37 C, 0.2 nM DNA; 0.2% glutaraldehyde before 6%. The settings on record: protein: recombinant, chain copies: 8, label: 32P (5' by gamma-32P).
The target in the next data set is T2, DisA;RecU (Bacillus subtilis;Bacillus subtilis, UniProt P37573;P39792 1-360;1-206, |).
T2 sequence 1: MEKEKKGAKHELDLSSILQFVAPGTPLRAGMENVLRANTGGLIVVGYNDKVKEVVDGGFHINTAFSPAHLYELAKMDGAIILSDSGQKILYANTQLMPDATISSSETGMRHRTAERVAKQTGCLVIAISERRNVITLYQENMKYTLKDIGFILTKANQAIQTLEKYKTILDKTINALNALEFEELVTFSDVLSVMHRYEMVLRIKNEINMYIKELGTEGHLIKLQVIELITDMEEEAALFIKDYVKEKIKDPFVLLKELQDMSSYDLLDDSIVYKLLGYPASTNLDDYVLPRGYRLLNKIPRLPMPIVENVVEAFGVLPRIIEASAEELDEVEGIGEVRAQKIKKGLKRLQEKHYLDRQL
T2 sequence 2: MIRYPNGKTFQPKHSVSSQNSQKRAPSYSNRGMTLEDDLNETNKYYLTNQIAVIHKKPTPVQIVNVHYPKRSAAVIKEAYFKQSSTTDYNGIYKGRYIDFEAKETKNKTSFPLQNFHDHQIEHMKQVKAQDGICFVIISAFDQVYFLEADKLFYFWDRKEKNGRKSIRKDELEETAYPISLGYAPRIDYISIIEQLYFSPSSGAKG
The data set can be described thus: DNase I footprinting; preformed at 1 mM Mg2+, then 10 mM Mg2+; coexistence judged likely; 50 mM Tris-HCl pH 7.5, 50 mM NaCl, 1 mM DTT, 0.05 mg/mL BSA, 5% glycerol, 1 or 10 mM MgCl2 or 5 mM EDTA, 15 min 37 C, 0.2 nM DNA; 0.2% glutaraldehyde before 6%. Particulars: protein: recombinant;recombinant; tags: ;; chain copies: 8;2; label: 32P (5' by gamma-32P); four-way junction.

Another data set addresses T3, RuvA (Bacillus subtilis, UniProt O05392 1-201).
T3 sequence: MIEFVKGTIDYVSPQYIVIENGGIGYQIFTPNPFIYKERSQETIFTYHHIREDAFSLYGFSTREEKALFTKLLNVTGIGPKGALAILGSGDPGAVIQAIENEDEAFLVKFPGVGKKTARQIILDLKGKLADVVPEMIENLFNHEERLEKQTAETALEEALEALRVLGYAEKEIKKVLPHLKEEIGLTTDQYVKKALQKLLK
Nature of the data set: EMSA; 1 mM Mg2+; 50 mM Tris-HCl pH 7.5, 50 mM NaCl, 1 mM DTT, 0.05 mg/mL BSA, 5% glycerol, 1 or 10 mM MgCl2 or 5 mM EDTA, 15 min 37 C, 0.2 nM DNA; 0.2% glutaraldehyde before 6%. Particulars: protein: recombinant; chain copies: 8; label: 32P (5' by gamma-32P); four-way junction.

Another data set has as its target T4, RecU (Bacillus subtilis, UniProt P39792 1-206).
T4 sequence: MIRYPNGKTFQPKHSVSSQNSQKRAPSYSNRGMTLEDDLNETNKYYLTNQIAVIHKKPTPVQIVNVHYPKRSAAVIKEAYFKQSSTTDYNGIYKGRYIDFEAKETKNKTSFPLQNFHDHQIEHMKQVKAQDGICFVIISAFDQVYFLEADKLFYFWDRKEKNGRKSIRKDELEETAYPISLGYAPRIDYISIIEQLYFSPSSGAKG
The description is as above. Particulars: protein: recombinant; chain copies: 2; label: 32P (5' by gamma-32P); four-way junction.

Another data set addresses T5, DisA;RuvA (Bacillus subtilis;Bacillus subtilis, UniProt P37573;O05392 1-360;1-201, |).
T5 sequence 1: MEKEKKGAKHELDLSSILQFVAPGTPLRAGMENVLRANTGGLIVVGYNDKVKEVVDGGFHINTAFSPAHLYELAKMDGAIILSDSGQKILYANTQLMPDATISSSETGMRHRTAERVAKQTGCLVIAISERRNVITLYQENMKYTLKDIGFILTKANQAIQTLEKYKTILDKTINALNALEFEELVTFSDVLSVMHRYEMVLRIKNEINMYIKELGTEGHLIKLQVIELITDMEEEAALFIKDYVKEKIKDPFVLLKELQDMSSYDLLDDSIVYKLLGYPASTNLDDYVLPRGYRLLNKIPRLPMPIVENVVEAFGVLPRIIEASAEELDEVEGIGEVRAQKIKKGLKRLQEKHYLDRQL
T5 sequence 2: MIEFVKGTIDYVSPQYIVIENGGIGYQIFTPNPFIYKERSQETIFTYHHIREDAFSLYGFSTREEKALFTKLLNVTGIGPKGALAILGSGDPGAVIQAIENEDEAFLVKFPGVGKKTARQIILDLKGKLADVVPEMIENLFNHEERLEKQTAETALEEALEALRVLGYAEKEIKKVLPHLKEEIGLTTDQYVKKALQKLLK
Nature of the data set: EMSA; 1 mM Mg2+; new R+A complex; 50 mM Tris-HCl pH 7.5, 50 mM NaCl, 1 mM DTT, 0.05 mg/mL BSA, 5% glycerol, 1 or 10 mM MgCl2 or 5 mM EDTA, 15 min 37 C, 0.2 nM DNA; 0.2% glutaraldehyde before 6%. Particulars: protein: recombinant;recombinant; tags: ;; chain copies: 8;8; label: 32P (5' by gamma-32P); four-way junction.

The target in another data set is T6, DisA;RuvA;RuvB (Bacillus subtilis;Bacillus …, UniProt P37573;O05392;O32055 1-360;1-201;1-334, ||).
T6 sequence 1: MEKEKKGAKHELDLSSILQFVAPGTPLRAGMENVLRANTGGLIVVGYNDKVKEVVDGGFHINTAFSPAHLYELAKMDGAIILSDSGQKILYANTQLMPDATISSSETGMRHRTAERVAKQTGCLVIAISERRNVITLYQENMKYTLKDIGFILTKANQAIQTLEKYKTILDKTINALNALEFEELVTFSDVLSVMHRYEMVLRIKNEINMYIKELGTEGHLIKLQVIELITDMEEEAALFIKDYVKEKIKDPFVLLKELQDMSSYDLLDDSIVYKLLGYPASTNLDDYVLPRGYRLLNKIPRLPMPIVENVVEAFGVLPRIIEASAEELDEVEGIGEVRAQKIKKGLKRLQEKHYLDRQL
T6 sequence 2: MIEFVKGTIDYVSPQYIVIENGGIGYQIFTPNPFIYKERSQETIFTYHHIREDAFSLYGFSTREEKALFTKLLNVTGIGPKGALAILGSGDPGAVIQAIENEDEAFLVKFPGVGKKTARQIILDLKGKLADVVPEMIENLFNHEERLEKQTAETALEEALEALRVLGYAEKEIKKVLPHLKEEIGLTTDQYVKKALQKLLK
T6 sequence 3: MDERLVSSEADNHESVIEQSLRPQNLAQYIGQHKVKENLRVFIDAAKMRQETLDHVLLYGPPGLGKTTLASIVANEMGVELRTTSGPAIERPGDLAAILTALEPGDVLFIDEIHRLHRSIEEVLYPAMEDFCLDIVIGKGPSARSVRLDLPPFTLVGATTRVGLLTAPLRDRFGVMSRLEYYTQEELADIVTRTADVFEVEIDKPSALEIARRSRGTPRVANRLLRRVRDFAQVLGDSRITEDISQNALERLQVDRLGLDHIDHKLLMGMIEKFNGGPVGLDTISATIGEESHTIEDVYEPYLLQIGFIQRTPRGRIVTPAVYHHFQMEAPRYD
Nature of the data set: DNase I footprinting; 10 mM Mg2+; 5 mM ATPgS; either order of addition; 50 mM Tris-HCl pH 7.5, 50 mM NaCl, 1 mM DTT, 0.05 mg/mL BSA, 5% glycerol, 1 or 10 mM MgCl2 or 5 mM EDTA, 15 min 37 C, 0.2 nM DNA; 0.2% glutaraldehyde before 6%. The settings on record: protein: recombinant;recombinant;native; tags: ;;; label: 32P (5' by gamma-32P); four-way junction.

For the next data set, the target named is T7, RuvA;RuvB (Bacillus subtilis;Bacillus subtilis, UniProt O05392;O32055 1-201;1-334, |).
T7 sequence 1: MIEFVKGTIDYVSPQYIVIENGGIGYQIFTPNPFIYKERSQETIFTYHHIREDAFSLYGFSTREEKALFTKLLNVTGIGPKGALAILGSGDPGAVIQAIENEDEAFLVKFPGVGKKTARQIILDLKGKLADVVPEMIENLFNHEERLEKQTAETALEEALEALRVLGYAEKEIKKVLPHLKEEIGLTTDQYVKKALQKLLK
T7 sequence 2: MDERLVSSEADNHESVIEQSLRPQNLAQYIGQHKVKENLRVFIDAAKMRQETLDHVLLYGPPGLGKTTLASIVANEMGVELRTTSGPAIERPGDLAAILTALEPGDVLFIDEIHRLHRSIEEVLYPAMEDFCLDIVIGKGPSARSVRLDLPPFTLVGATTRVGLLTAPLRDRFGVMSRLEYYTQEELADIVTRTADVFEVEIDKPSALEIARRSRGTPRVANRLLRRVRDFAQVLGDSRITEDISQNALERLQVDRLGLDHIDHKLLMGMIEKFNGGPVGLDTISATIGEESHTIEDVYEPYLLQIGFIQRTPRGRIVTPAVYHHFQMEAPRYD
The data set can be described thus: DNase I footprinting; 10 mM Mg2+; 5 mM ATPgS; ~40-nt footprint; 50 mM Tris-HCl pH 7.5, 50 mM NaCl, 1 mM DTT, 0.05 mg/mL BSA, 5% glycerol, 1 or 10 mM MgCl2 or 5 mM EDTA, 15 min 37 C, 0.2 nM DNA; 0.2% glutaraldehyde before 6%. Particulars: protein: recombinant;native; tags: ;; chain copies: 8;12; label: 32P (5' by gamma-32P); four-way junction.

The target in data set [3] is T1, DisA. Nature of the data set: EMSA; 10 mM Mg2+; 500 uM ATP; 50 mM Tris-HCl pH 7.5, 50 mM NaCl, 1 mM DTT, 0.05 mg/mL BSA, 5% glycerol, 1 or 10 mM MgCl2 or 5 mM EDTA, 15 min 37 C, 0.2 nM DNA; 0.2% glutaraldehyde before 6%. Particulars: protein: recombinant; chain copies: 8; label: 32P (5' by gamma-32P); four-way junction.

ssDNA (oligonucleotide not stated) displayed an equilibrium dissociation constant (Kd) with DisA [1] of 3.3 nM.

B1: flayed DNA (170/173) (structured_DNA)
DNA 1: AGACGCTGCCGAATTCTGGCTTGGATCTGATGCTGTCTAGAGGCCTCCACTATGAAATCG
DNA 2: AGCTCATAGATCGATAGTCTCTAGACAGCATCAGATCCAAGCCAGAATTCGGCAGCGTCT
Regarding B1, the Kd in the data set with DisA [2] (fork 1:2, unpaired 3' end of 170 and 5' end of 173) was found to be 3.2 ± 0.2 nM.

B2: dsDNA (80-bp) (dsDNA)
DNA 1: CGCAGCGACAGGAACCTCGAGGAATTCAACCACCGCTCAACTCAACTGCAGTCTGACTCGAGGTTCCTGTCGCTTGCG
DNA 2: CGCAAGCGACAGGAACCTCGAGTCTAGACTGCAGTTGAGTTGAGCGGTGGTTGAATTCCTCGAGTTCCTGTCGCTTGCG
With B2, in the data set with DisA [2] (duplex, printed strands not exactly complementary (small deletions/insertion)), the equilibrium dissociation constant (Kd) worked out at 2.6 ± 0.3 nM.

B3: HJ-J3 DNA (fixed Holliday junction) (structured_DNA)
DNA 1: CGCAAGCGACAGGAACCTCGAGAAGCTTCCGGTAGCAGCCTGAGCGGTGGTTGAATTCCTCGAGGTTCCTGTCGCTTGCG
DNA 2: CGCAGCGACAGGAACCTCGAGGAATTCAACCACCGCTCAACTCAACTGCAGTCTGACTCGAGGTTCCTGTCGCTTGCG
DNA 3: CGCAAGCGACAGGAACCTCGAGTCTAGACTGCAGTTGAGTCCTTGCTAGGACGGATCCCTCAGGTTCCTGTCGCTTGCG
DNA 4: CGCAAGCGACAGGAACCTCGAGGGATCCGTCCTAGCAAGGGGCTGCTACCGGAAGCTTCTCGAGGTTCCTGTCGCTTGCG
Regarding B3, the Kd with DisA [2] (four-way junction) is 3 ± 0.5 nM; with RuvA, 10 ± 2 nM; in the data set with RecU, 0.6 ± 0.2 nM; with DisA [3], 5.5 ± 0.3 nM. Besides, the binding result with DisA;RecU, with DisA;RuvA, with DisA;RuvA;RuvB and with RuvA;RuvB was “binds” each time.
